# From article PMC10615203, “The 14-3-3 protein OsGF14f interacts with OsbZIP23 and enhances its activity to confer osmotic stress tolerance in rice”
# T1: GST-OsbZIP23 (Oryza sativa, UniProt Q6Z312)
# T1 sequence: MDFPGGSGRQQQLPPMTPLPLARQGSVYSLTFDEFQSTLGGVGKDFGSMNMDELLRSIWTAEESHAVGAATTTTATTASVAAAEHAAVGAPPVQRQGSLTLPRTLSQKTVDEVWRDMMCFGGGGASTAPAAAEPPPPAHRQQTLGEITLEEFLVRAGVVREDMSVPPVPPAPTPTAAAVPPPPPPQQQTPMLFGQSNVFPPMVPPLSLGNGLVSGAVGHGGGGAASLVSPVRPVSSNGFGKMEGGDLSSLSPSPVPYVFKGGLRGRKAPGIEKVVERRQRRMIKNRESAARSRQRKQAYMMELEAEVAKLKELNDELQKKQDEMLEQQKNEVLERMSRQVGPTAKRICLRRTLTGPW
# T2: GST-OsGF14f (Oryza sativa, UniProt Q06967 1-260)
# T2 sequence: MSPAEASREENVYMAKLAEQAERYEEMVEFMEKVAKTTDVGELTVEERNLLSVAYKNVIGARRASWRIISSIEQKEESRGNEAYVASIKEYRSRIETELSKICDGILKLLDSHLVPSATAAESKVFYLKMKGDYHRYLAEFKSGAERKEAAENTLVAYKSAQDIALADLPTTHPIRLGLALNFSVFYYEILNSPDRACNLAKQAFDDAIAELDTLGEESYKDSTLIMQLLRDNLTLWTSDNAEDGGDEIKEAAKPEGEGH
# Assays:
# [1] = target: T1, GST-OsbZIP23; test: EMSA; EMSA kit (Viagene) binding buffer (composition not given), room temperature, 20 min; 6% native PAGE; details: protein: recombinant; tags: GST (N-terminal, pGEX-4T-3); chain copies: 2; label: 5' biotin; blunt
# [2] = target: T2, GST-OsGF14f; test: as above; details: protein: recombinant; tags: GST (N-terminal, pGEX-4T-3); chain copies: 2; label: 5' biotin; blunt
binder,measurement,setting,value
OsLEA3-2 promoter probe P1 (dsDNA) DNA 1: ACCCGAGGCACACGTGTCCACCTCACCGGGGCACGTGTCGCGCCGT DNA 2: ACGGCGCGACACGTGCCCCGGTGAGGTGGACACGTGTGCCTCGGGT,binding result,[1],binds
same,binding result,[2],no binding
OsGF14f promoter probe (dsDNA) DNA 1: TGGCGCCTTGCCACGTGCCCCCTCCCT DNA 2: AGGGAGGGGGCACGTGGCAAGGCGCCA,binding result,[1],binds
